Results taken from the supplement of paper PMC7125110.
± gives the standard error. Fewer inactive variants are shown than the library holds.

B1: glmS ribozyme (parent)
chain: AUAAAAGCGCCAGAACUACAGAAAUGUAGUUGACGAGGAGGAGGUUUAUCGAAUUUUCGGCGGAUGCCUCCAAA

Variants of: B1
Assay: self-cleavage kobs at 2500 uM GlcN6P; higher = faster cleavage; RNA array
Settings: with glucosamine-6-phosphate
Outline: (§1)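 Barcoded ribozyme variants were transcribed in situ on sequenced MiSeq chips by E. coli RNA polymerase. At 37 °C, a hybridised Cy3 probe tracked them while glucosamine-6-phosphate (40 μM to 10 mM) in HEPES/KCl/Mg(OAc)2 buffer flowed in and tiles were imaged over ~14 h. Per-tile medians of signals normalised to baseline and to non-cleaving reference variants were fit to one- or two-exponential decays, giving kobs. kcat and KM came from weighted Michaelis–Menten fits across concentrations.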

| Variant | self-cleavage kobs at 2500 uM GlcN6P [s⁻¹] |
| --- | --- |
| G41A U45A C71U | 9.76e-05 ± 2.1e-05 |
| G32C G51U U56C | < 1e-05 |
| C8A G38A G63U C68U | < 1e-05 |
| G29A C50A C67G | 8.63e-05 ± 3.6e-05 |
| C8G A64U C70U | < 1e-05 |
| G40A A48U C58A G60A | < 1e-05 |
| G9C C10U A36U A48U C71G | < 1e-05 |
| C34A G41A U47C | < 1e-05 |
| A15G G32U C71G | 8.85e-05 ± 2.5e-05 |
| U49G A53G U69G | 4.58e-05 ± 1.6e-05 |
| C11U U54C G66U | 9.68e-05 ± 3.4e-05 |
| U31C U49C U65G | < 1e-05 |
| G13U G66A | 0.000499 ± 0.0001 |
| A33C U49G U69C | < 1e-05 |
| C11A C34A C58U C61G G62A | < 1e-05 |
| A14U U55G C58G | 5.25e-05 ± 1.2e-05 |
| A33C A53C C61G | < 1e-05 |
| C50U G60U A64C C70A | < 1e-05 |
| A14U G32U C71A | 4.64e-05 ± 2e-05 |
| C8A C10G A39C | < 1e-05 |
| A14G C16A U45C G66C | 0.000167 ± 3.4e-05 |

| Variant | self-cleavage kobs at 2500 uM GlcN6P [s⁻¹] |
| --- | --- |
| A6G C10G U30A G32U U56G | < 1e-05 |
| G44C A48G A53C G59U | < 1e-05 |
| C11A G29U C58A | < 1e-05 |
| U31A A36G G63A A64U C71U | < 1e-05 |
| A15C A39G U47G A53U | 0.000235 ± 8.5e-05 |
| G13A G43A U49C C58A | < 1e-05 |
| G9C G59C G63U | < 1e-05 |
| A15U C16G A33U U49C | < 1e-05 |
| U46C U47A U69A | 0.000198 ± 6.5e-05 |
| A14C C16A A42G | 5.08e-05 ± 2e-05 |
| G59U A64C G66C | < 1e-05 |
| G29A G60U C71A | < 1e-05 |
| U47A A48U U55A G60A | < 1e-05 |
| C10G G32U G62U U65G | < 1e-05 |
| G29C G41A | 7.06e-05 ± 3.1e-05 |
| U46G G66A C70A | 0.00045 ± 0.00016 |
| A6U G13A G35C A52C | < 1e-05 |
| C34G A42C A48G | < 1e-05 |
| C10G G43U U46C | < 1e-05 |
| C11U U31C C50A | < 1e-05 |
| G40A U56A C70G | 0.000135 ± 3e-05 |

| Variant | self-cleavage kobs at 2500 uM GlcN6P [s⁻¹] |
| --- | --- |
| A6U G9A C68U | < 1e-05 |
| G37C G38U A42C U45C U46G | < 1e-05 |
| G32A C58U C68G | 0.000103 ± 3.5e-05 |
| C11G A33U U46G G51C U54A | < 1e-05 |
| A6G A48G C71A | < 1e-05 |
| G9U U54C G63C | < 1e-05 |
| G29C A33U G38C U56A C71U | < 1e-05 |
| G29C A53C C67U | 0.000153 ± 4.1e-05 |
| A12U C34U G38A C50G | 0.000122 ± 3e-05 |
| C10U G32U U69A | 4.03e-05 ± 1.7e-05 |
| A6U A39U G41C | < 1e-05 |
| U2C A6C G60A | < 1e-05 |
| G29U G32U C50G | 6.06e-05 ± 2.9e-05 |
| G37A G60U | < 1e-05 |
| C11A C34A G41A | < 1e-05 |
| A14C A15G C16U | 4.99e-05 ± 1.9e-05 |
| C11U G29C U31A | < 1e-05 |
| G37U G66U C68G C71G | 4.28e-05 ± 2e-05 |
| G44C G62A C68G | < 1e-05 |
| A42U A52U U55C C70G | < 1e-05 |
| C8G G29C G38C U57C | < 1e-05 |

| Variant | self-cleavage kobs at 2500 uM GlcN6P [s⁻¹] |
| --- | --- |
| C10G G63C G66U | < 1e-05 |
| A14U G43C A53U G59C | < 1e-05 |
| A6G G29C U31C | < 1e-05 |
| G9A A14C G43U U46A | < 1e-05 |
| C10U A36U G40U | < 1e-05 |
| U46A A52G G63U C67G | < 1e-05 |
| A6G C11G U69G | 7.2e-05 ± 2.9e-05 |
| A15C G32C U55C U57C U65C | < 1e-05 |
| G13U A53G C68U | 0.000212 ± 3.7e-05 |
| A33U A48U G62U | < 1e-05 |
| A12C U30A C50U G51C | < 1e-05 |
| U31C A36C G63U C68A | 0.000118 ± 4e-05 |
| G32U G37U C58U | < 1e-05 |
| A6U C16G G29U G43C U47G U54C | < 1e-05 |
| C8G A33G A42G U55G | < 1e-05 |
| G13U G38U U54G G62A | < 1e-05 |
| A15G C16U U31A A39C | 0.000142 ± 2.8e-05 |
| G13U G35U U54A | < 1e-05 |

Variants of: B1
Assay: self-cleavage kobs at 10000 uM GlcN6P; higher = faster cleavage; RNA array
Settings: with glucosamine-6-phosphate
Outline: as §1

| Variant | self-cleavage kobs at 10000 uM GlcN6P [s⁻¹] |
| --- | --- |
| G9C C10U A36U A48U C71G | < 1e-05 |
| G13U G66A | 0.000729 ± 0.00013 |
| A14U G32U C71A | 7.15e-05 ± 2.1e-05 |
| G9C G59C G63U | < 1e-05 |
| G29C G41A | 5.29e-05 ± 2.1e-05 |
| G37A G60U | < 1e-05 |
| A15C G32C U55C U57C U65C | < 1e-05 |
